Measurements reported in patent US20210403586A1, “MUTANT OF RANKL AND PHARMACEUTICAL COMPOSITION COMPRISING SAME FOR PREVENTING OR TREATING OSTEOPOROSIS” (INDUSTRY-ACADEMIC COOPERATION FOUNDATION CHOSUN UNIVERSITY, priority 2018, published 2021).
Entries after “also recorded” stand apart in the source; their conditions may differ.

B1: wtRANKL: wild-type RANKL (mouse; purified, or from Amgen in Example 2) (protein, UniProt O35235 139-316, looked up)
Tumor necrosis factor ligand …: FSGAPAMMEGSWLDVAQRGKPEAQPFAHLTINAASIPSGSHKVTLSSWYHDRGWAKISNMTLSNGKLRVNQDGFYYLYANICFRHHETSGSVPTDYLQLMVYVVKTSIKIPSSHNLMKGGSTKNWSGNSEFHFYSINVGGFFKLRAGEEISIQVSNPSLLDPDQDATYFGAFKVQDID
B2: sRANKL: soluble RANKL; R&D Systems (protein)
chain: B1 Tumor necrosis factor ligand …

Legend:
wtRANKL-induced mouse = assay: mtRANKL immunization in wtRANKL-induced osteoporosis mice, micro-CT; assay type: in vivo
Method: (§1) The right femur of each mouse subjected to each experiment was incised and CT imaging was performed using a Quantum GX pCT imaging system (PerkinElmer, Hopkinton, Mass., USA) located at the Korea Basic Science Institute in Gwangju. As for the X-ray source, the field of view was set to 45 mm, 90 kV and […] (voxel size, 90 μm; scanning time, 14 minutes). CT imaging was performed using a Quantum GX 3D Viewer software. After scanning, image segmentation was performed in Analyze (AnalyzeDirect, Overland Park, Kans., USA). Briefly, the legs were segmented using semi-automatic and manual tools (e.g., object extractor, area expansion, and object separator) using volume editing tools. Then, a 3D rendering of the leg was created, and bone mineral density (BMD), bone volume (BV), bone volume percentage (%), and trabecular thickness were calculated using the ROI tools.
(§2) 17-week-old […] BALB/c mice were equally divided into 3 groups. The group was divided into a negative control group in which PBS was intraperitoneally injected, a group in which only wtRANKL was injected, and a group in which wtRANKL was injected after immunization with mtRANKL for 52 days. mtRANKL was injected after mixing with an aluminum hydroxide adjuvant. The immunization process started with 1st immunization of mtRANKL at 52 days, 2nd immunization at 39 days, 3rd immunization at 14 days each before injection of wtRANKL, and a total of 3 immunizations was performed. The amount of mtRANKL was 0.2 mg per mouse.
(§3) After 52 days, PBS was injected into the negative control group and wtRANKL was injected into the other two groups. Next day, wtRANKL was injected once more. wtRANK was subcutaneously injected (2.0 mg/kg). Serum was collected to determine the titer of anti-RANKL antibody. Then, after extracting tibias, the adhesive soft tissues of tibias were removed.
To examine whether RANKL has a bone destruction effect when RANKL was injected after immunization with mtRANKL, micro-CT analysis was performed by the method of Reference Example 6.

[1] = system: bone marrow-derived monocytes (BMMs); assay: TRAP analysis of osteoclastogenesis induced by RANKL variants in BMMs; assay type: cell-based, mouse; conditions: RANKL-treated primary BMM
Method: The RANKL-RANK binding sites are K180, D189, R190, H223, H224, which are conserved between humans and mice. We selected 4 mutant RANKLs to be purified. Their size corresponded to the wild type RANKL (39 kDa) (FIG. 2B). Tartrate-resistant acid […] (TRAP) activity was absent for all RANKLs even at 150 ng/mL (FIG. 2C, D).
4-week old male BALB/c mice were purchased from Orient Bio (Gwangju, Korea) and kept in an animal facility approved by the Chosun University Animal Management Committee (IACUC2017-A0002). After obtaining bone marrow cells from mice, bone marrow mononuclear cells were seeded into 96-well plates (1 Y 10^4 cells/well), and in the absence or presence of various concentrations of compounds, incubated with M-CSF (100 ng/mL) overnight before stimulation with RANKL (50 ng/well). The medium was replaced every other days. 6 days later, the cells were fixed with 4% paraformaldehyde, permeated in 0.1% Triton X-100, and washed with PBS. Then, TRAP activity (Sigma-Aldrich, St. Louis, Mo., USA) staining was performed. TRAP-positive multinuclear cells containing 5 or more nuclei were counted as osteoclasts.
To evaluate the effect of mtRANKL on osteoclastogenesis, TRAP analysis was performed on RANKL-treated primary bone marrow-derived macrophages (BMM) by the method described in Reference Example 2, and the results are shown in FIGS. 4B and 4C.

RANK and LGR4 signaling [2] = assay: Western blots of RANK and LGR4 signaling pathway proteins, RANKL variants; assay type: cell-based, mouse; conditions: BMMs, Western blot
Method: (§4) Proteins were separated by SDS-PAGE and electropermeated into a nitrocellulose membrane (Bio-Rad). After blocking the membrane with 5% (weight/volume) skim milk in TBST [10 mM Tris (pH 7.5), 150 mM NaCl, 0.1% (vol/vol) Tween 20], each mouse serum for primary antibody in the blocking solution was examined. The membrane was washed three times with Tris buffered saline. […] peroxidase (HRP)-conjugated secondary antibody was diluted 1:5000 with TBST in 1% (wt/vol) skim milk powder. ECL_system (Amersham Pharmacia Biotech) was used as the membrane.
Primary antibodies: AKT (Cell Signaling Technology, 1:1000), phospho-AKT (Cell Signaling Technology, #9271S, 1:1000), p38 (Cell Signaling Technology, 9212S, 1:1000), phospho-p38 (Cell Signaling Technology, #9211S, 1:1000), ERK (Cell Signaling Technology, 9102S, 1:1000), phospho-ERK (Cell Signaling Technology, #9101S, 1:1000), JNK (Cell Signaling Technology, 9252S, 1:1000), phosphoJNK (Cell Signaling Technology, #9251S, 1:1000), GSK-3β (Cell Signaling Technology, 9315S, 1:1000), phosphoGSK-3β (Cell Signaling Technology, #9336S, 1:1000), Src (Cell Signaling Technology, 2108S, 1:1000), phosphoSrc (Cell Signaling Technology, #2105S, 1:1000), NF-KB p65 (Cell Signaling Technology, #3034, 1:1000), phosphop65 (Cell Signaling Technology, #3031, 1:1000), RANK (Cell Signaling Technology, 4845S, 1:1000), Gaq (Cell Signaling Technology, 14373S, 1:1000), LGR4 (MyBioSource, MBS468030, 1:500), 20112360C-1, and GAPDH (Santa-Cruz Biotechnology, 1:2500).
To investigate the interaction of mRANKL variants and RANK, the co-immunoprecipitation (Co-IP) assays were carried out using mRANKL-WT/mRANKL-MT3 and RANK/LGR4 (FIG. 12A). In addition, wild-type RANKL induced MAPK, AKT, NF-κB p65, and GSK-3 phosphorylation, which is involved in LGR4 signaling (FIG. 12B).

RANKL = assay: ELISA of serum RANKL levels; assay type: in vivo, mouse; conditions: wtRANKL 2.0 mg/kg s.c. to non-immunized mice, or to mice immunized with mtRANKL
Method: A commercially available enzyme immunoassay kit (R & D Systems, Minn., USA) was used to measure RANKL levels in the serum of mice according to the manufacturer's protocol. Absorbance (450 nm) was measured in a colorimetric microplate reader (BioTek, Winooski, USA). The reading of the absorbance was then subtracted from the reading at 570 nm.
as §2, §3

BALB/c mice = assay: Bone destruction by injected mtRANKL, micro-CT; assay type: in vivo, mouse; conditions: subcutaneous 1.0 mg/kg three times a week
Method: as §1
To investigate the bone-destructive effect of mtRANKL, 4-week-old male BALB/c mice (Orient Bio) were placed in a cage capable of accommodating up to 4 animals in a light-controlled environment ([…]) and provided with autoclaved water and both whole and powdered rodent diet (Purina, St. Louis, Mo., USA). Starting from 6 weeks of age, 9 mice were randomly divided into three groups, and each group was subcutaneously injected with wild-type RANKL (Amgen, Thousand Oaks, Calif., USA), mtRANKL purified in Reference Example 2, and saline three times a week (1.0 mg/kg). The trabecular bone in femoral neck was examined by Micro-CT analysis described in Reference Example 6.

BMMs [3] = assay: F-actin ring formation assay; assay type: cell-based, mouse; conditions: mRANKL-MT3 150 ng/mL
Method: (§5) We used bone-resorption and F-actin ring formation assays to investigate osteoclast activity. To observe bone resorption in vitro, BMMs were cultured in Corning Osteo Assay Surface 96-well Multiple Well Plates (Sigma) with 30 ng/mL M-CSF and 75 ng/mL sRANKL (soluble RANKL; R&D Systems) or isolated RANKL for 6 days. Then, the plates were washed with pure water. To monitor actin ring formation, BMMs were grown on glass slides. After culture, the cells were fixed with 4% formalin, permeabilized with 0.5% Triton X100 in PBS for 5 min at room temperature, and incubated with 0.5 mg/mL TRITC-labelled phalloidin for 30 min. The cells were then rinsed with PBS. F-actin rings were visualized using a fluorescence ECLIPSE Ts2R microscope (Nikon, Tokyo, Japan).

BMMs [4] = assay: Bone-resorption assay (Osteo Assay Surface plates); assay type: cell-based, mouse; conditions: 6 days, mRANKL-MT3 150 ng/mL
Method: as §5

RANK and LGR4 signaling [5] = assay: Anti-RANKL on RANK and LGR4 signaling in BMMs; assay type: cell-based, mouse; conditions: Western blot, sRANKL
Method: as §4, with “membrane. […]” for “membrane.”
We verified that anti-RANKL suppressed RANK and LGR4 signaling in a time-dependent manner (FIG. 13A). […] In addition, NFATc1 nuclear translocation was not detected by Western blot analysis or confocal microscopy in anti-RANKL-treated BMMs in the presence of sRANKL compared with control IgG (FIG. 13B, 13C).

isolated spleen cells = assay: Th1/Th2 cytokine secretion of isolated spleen cells; assay type: cell-based, mouse; conditions: culture supernatant of Sham and IM splenocytes stimulated with sRANKL or mRANKL-MT3
Excerpt: To determine whether mRANKL-MT3 immunization influences Th1 and Th2 cytokine production, we evaluated the effects of mRANKL-MT3 on IL-4 and IL-10 secretion, which are markers for Th2 responses, and IFN-γ, a marker for Th1 responses, in the culture supernatant of isolated spleen cells stimulated with sRANKL or mRANKL-MT3 (FIG. 8C).

sRANKL-induced mice = assay: Anti-RANKL IgGs in sRANKL-induced mice; assay type: in vivo, mouse
[6] = wtRANKL-injected mice vs mtRANKL-immunized mice with wtRANKL injection

Row | Molecule | bone volume and percentage of bone volume (wtRANKL-induced mouse; compared with PBS-treated mice) | BMD of tibias (wtRANKL-induced mouse; [6]) | trabecular bone architecture of proximal tibias (micro-CT) (wtRANKL-induced mouse; [6]) | number of TRAP-positive multinuclear osteoclasts / osteoclast differentiation [1] | GSK-3 phosphorylation (RANK and LGR4 signaling [2]) | MAPK, AKT, and NF-κB p65 phosphorylation (RANK and LGR4 signaling [2]) | level of RANKL in the blood (ELISA) (RANKL) | BMD, bone volume (BV), percentage (%) of bone volume, and trabecular thickness (BALB/c mice) | trabecular bone by Micro-CT (osteoporosis) (BALB/c mice) | F-actin ring formation (BMMs [3]) | resorption pits (BMMs [4]) | MAPK, AKT, src, and GSK-3β phosphorylation (RANK and LGR4 signaling [5]) | IFN-γ levels (isolated spleen cells) | IL-4 and IL-10 secretion (isolated spleen cells) | trabecular bone architecture of VOI from the distal femur (micro-CT) (sRANKL-induced mice; sRANKL-induced mice) | BMD, BV/TV, and Tb.N. values (sRANKL-induced mice; sRANKL-induced mice, quantitative micro-CT) | bone histomorphometric analysis and TRAP staining of femur (sRANKL-induced mice; sRANKL-treated mice) | circulating RANKL and CTX-1 levels (sRANKL-induced mice; sRANKL-treated mice sera)
1 | B1 | decreased | 738.0 ± 19.1 mg/mL | fenestrated trabecular bone and thinner rods forming the trabecular bone | significantly higher; also recorded: increased the number of TRAP-positive multinucleated cells | induced | induced | increased | remarkably reduced | mild osteoporosis was observed | a ring of intracellular F-actin filaments in the sealing zone | numerous resorption pits | – | – | – | – | – | – | –
2 | B2 | – | – | – | – | – | – | – | – | – | – | – | induced | no significant differences | significantly increased | mild osteoporosis | low | an increased number of TRAPpositive osteoclasts | higher
